This data set deals with GST-p53 (UniProt P04637). In words: fluorescence polarization. To be noted: FP: 4 nM FAM duplex, 100 mM NaCl, 10 mM Tris-HCl pH 7.5, 10% glycerol, 5 mM DTT, 0.2 mg/mL BSA, room temperature; pull-down: 2 ug duplex with lysate, 90 min …. (Fluorescence polarisation rises when a labelled molecule tumbles more slowly, as on binding a larger partner.)

The values that follow come from PMC4226670.

Sequence of GST-p53 (P04637 whole entry): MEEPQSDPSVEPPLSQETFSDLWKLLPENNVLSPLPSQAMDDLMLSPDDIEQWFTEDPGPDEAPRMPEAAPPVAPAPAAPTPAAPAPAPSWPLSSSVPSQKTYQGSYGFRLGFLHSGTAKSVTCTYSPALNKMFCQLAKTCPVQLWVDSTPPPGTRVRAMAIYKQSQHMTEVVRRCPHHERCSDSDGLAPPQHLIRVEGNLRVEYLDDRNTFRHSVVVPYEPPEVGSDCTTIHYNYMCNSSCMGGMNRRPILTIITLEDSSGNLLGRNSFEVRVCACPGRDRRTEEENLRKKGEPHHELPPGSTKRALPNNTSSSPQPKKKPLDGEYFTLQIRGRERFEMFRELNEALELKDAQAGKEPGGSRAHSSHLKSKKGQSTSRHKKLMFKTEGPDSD

Usually Kd stands for the concentration at which binding is half-saturated. Read a low Kd as a tighter complex. The sequence “CGCGCCTGCAAGTCCTGACTTGTCCGCGGC (double strand) [PUMA promoter duplex, FAM]” yielded an equilibrium dissociation constant (Kd) of 29.6 nM.
